# Results published in article PMC11741606 (2025).
# T1: dAPN-Y797H ectodomain, hFc-tagged (dog (Canis lupus familiaris), UniProt P79143 33-975, Y797H)
# T1 sequence: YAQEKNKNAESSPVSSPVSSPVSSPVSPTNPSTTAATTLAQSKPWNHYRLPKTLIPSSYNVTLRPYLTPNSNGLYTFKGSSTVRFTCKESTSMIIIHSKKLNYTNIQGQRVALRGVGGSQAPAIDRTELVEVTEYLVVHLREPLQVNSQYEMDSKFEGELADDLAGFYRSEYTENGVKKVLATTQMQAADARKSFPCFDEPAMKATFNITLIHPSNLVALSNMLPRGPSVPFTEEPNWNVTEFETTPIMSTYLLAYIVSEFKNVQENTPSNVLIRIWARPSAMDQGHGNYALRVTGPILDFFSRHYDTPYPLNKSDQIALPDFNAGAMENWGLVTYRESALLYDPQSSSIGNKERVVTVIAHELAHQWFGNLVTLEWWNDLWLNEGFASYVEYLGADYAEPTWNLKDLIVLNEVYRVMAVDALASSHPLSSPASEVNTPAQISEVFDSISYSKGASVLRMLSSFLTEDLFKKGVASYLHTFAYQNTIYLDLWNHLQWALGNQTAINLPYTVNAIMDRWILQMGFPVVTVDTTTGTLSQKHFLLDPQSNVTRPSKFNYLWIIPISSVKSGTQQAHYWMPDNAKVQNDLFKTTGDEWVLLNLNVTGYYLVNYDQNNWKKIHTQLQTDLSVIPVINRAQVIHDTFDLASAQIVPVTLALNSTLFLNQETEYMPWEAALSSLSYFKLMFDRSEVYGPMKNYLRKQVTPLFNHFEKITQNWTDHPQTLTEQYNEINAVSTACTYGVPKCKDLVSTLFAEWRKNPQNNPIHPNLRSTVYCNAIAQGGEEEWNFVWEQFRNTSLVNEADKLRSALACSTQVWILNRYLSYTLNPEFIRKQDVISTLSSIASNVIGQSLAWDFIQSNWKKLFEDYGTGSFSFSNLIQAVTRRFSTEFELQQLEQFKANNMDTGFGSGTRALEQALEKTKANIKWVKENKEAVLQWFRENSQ
# T2: dAPN-Q746K-D750E ectodomain, hFc-tagged (dog (Canis lupus familiaris), UniProt P79143 33-975, Q746K | D750E)
# T2 sequence: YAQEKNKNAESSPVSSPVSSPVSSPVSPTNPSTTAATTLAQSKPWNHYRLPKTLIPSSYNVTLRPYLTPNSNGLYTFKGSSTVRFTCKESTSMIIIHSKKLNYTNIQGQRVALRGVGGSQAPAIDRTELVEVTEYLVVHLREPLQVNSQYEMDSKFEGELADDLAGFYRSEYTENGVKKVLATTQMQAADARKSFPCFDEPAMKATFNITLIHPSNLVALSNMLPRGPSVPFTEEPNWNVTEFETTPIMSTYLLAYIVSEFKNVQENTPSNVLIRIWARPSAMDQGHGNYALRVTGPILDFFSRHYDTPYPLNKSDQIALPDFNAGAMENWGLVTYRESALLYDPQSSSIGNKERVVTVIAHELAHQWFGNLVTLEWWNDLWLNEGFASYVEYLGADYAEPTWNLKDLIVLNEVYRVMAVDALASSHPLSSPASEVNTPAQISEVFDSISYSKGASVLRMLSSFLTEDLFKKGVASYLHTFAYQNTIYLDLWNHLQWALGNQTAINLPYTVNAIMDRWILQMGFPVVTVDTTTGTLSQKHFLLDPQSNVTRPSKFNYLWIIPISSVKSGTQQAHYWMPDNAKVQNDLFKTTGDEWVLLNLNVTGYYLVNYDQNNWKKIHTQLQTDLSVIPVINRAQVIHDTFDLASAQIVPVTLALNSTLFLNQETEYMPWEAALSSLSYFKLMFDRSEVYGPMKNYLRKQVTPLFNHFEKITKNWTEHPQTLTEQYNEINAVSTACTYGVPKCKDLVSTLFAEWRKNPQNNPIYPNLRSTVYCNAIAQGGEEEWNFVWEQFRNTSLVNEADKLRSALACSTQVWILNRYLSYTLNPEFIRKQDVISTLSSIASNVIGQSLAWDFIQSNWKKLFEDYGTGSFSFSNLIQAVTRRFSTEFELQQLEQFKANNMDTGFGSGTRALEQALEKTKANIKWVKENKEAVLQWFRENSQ
# T3: dAPN-D750E ectodomain, hFc-tagged (dog (Canis lupus familiaris), UniProt P79143 33-975, D750E)
# T3 sequence: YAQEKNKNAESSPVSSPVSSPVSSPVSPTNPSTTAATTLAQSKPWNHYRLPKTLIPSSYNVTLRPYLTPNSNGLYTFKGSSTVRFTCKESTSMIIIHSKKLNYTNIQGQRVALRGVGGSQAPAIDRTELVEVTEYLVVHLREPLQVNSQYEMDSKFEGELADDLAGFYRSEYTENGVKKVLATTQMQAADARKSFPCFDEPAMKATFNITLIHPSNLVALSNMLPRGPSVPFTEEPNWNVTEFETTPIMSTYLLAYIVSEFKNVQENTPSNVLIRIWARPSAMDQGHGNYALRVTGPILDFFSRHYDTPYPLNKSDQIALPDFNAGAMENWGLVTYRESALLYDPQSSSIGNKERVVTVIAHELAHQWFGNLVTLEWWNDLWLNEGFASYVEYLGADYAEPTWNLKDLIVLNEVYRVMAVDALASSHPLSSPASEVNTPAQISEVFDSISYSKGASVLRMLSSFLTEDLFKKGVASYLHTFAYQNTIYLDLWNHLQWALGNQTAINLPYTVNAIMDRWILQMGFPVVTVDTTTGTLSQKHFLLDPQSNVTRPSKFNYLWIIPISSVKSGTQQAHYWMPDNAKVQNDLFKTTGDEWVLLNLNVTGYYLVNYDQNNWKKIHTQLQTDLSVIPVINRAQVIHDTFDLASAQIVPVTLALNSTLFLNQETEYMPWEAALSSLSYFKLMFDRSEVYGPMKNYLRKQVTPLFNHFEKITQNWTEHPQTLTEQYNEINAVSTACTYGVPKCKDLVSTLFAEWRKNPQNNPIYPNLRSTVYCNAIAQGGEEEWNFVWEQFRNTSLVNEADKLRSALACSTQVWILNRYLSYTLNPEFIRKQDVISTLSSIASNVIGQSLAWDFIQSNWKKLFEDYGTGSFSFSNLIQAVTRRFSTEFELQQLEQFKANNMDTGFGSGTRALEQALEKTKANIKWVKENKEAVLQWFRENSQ
# What was measured:
# Assay in all cases: SPR
# [1] = target: T1, dAPN-Y797H ectodomain, hFc-tagged
# [2] = target: T2, dAPN-Q746K-D750E ectodomain, hFc-tagged
# [3] = target: T3, dAPN-D750E ectodomain, hFc-tagged
binder,measurement,setting,value
TGEV RBD (receptor-binding domain of the transmissible gastroenteritis coronavirus spike protein) (domain or fragment) TANLNNGFYPVSSSEVGLVNKSVVLLPSFYTHTIVNITIDLGMKRSGYGQPIASTLSNITLPMQDNNTDVYCIRSDQFSVYVHSTCKSSLWDNIFKRNCTDVLDATAVIKTGTCPFSFDKLNNYLTFNKFCLSLSPVGANCKFDVAARTRTNEQVVRSLYVIYEEGDNIVGVPSD,Kd,[1],23.8 nM
same,Kd,[2],1540 nM
same,Kd,[3],30.8 nM
